B1: AS05616 (Fab, V domains shown)
VH: EVQLVESGGGLVQPGGSLRLSCAASGFVFSRYDMAWVRQTPGKGLEWVSFISGGGSNTYYPDTVKGRFTISRDNSKNTLYLQMNSLRAEDTAVYYCISPYYYAMEYWGQGTTVTVSS
VL: DIQMTQSPSSISTSVGDRVTITCKASQDVDTAVAWYQQKPGKSPKLLIHWASTRHTGVPSRFSGSGSGTDFTLTISSLQPEDFADYFCQQYSTFPWTFGGGTKVEIK
notes: Humanized Fab-SASA clone from the phage library
B2: AS05614 (Fab, V domains shown)
VH: EVQLVESGGGLVQPGGSLRLSCAASGFVFSRYDMAWVRQTPGKGLEWVSFISGGGSNTYYPDTVKGRFTISRDNSKNTLYLQMNSLRAEDTAVYYCISPYYYAMEYWGQGTTVTVSS
VL: DIQMTQSPSSISTSVGDRVTITCKASQDVDTAVAWYQQKPGKSPKLLIHWASTRHTGVPSRFSGSGSGTDFTLTLSSVQPEDFATYFCQQYSTFPWTFGGGTKVEIK
notes: as for B1
B3: AS05617 (Fab) (Fab, V domains shown)
VH: EVQLVESGGGLVQPGGSLRLSCAASGFVFSRYDMAWVRQTPGKGLEWVSFISGGGSNTYYPDTVKGRFTISRDNSKNTLYLQMNSLRAEDTAVYYCISPYYYAMEYWGQGTTVTVSS
VL: DIQMTQSPSSISTSVGDRVTITCKASQDVDTAVAWYQQKPGKSPKLLIYWASTRHTGVPSRFSGSGSGTDFTLTISSLQPEDFADYFCQQYSTFPWTFGGGTKVEIK
notes: as for B1
B4: AS05618 (Fab, V domains shown)
VH: EVQLVESGGGLVQPGGSLRLSCAASGFVFSRYDMAWVRQTPGKGLEWVSFISGGGSNTYYPDTVKGRFTISRDNSKNTLYLQMNSLRAEDTAVYYCISPYYYAMEYWGQGTTVTVSS
VL: DIQMTQSPSSISTSVGDRVTITCKASQDVDTAVAWYQQKPGKSPKLLIHWASTRHTGVPSRFSGSGSGTDFTLTISSLQPEDFADYFCQQYSTFPWTFGGGTKLEIK
notes: as for B1
B5: Fab 11 (Fab, V domains shown)
VH: EVQLVESGGGLVQPGGSLRLSCAASGFVFSRYDMAWVRQTPGKGLEWVAFISGGGSNTYYPDTVKGRFTISRDNSKNTLYLQMNSLRAEDTAVYYCISPYYYAMEYWGQGTTVTVSS
VL: DIQMTQSPSSISTSVGDRVTITCKASQDVDTAVAWYQQKPGKSPKLLIHWASTRHTGVPSRFSGSGSGTDFTLTLSSVQPEDFADYFCQQYSTFPWTFGGGTKLEIK
notes: Crude Fab from E. coli; also called PD1-BM VL-L83F
B6: Fab 7 (Fab, V domains shown)
VH: EVQLVESGGGLVQPGGSLRLSCAASGFVFSRYDMAWVRQTPGKGLEWVAFISGGGSNTYYPDTVKGRFTISRDNSKNTLYLQMNSLRAEDTAVYYCISPYYYAMEYWGQGTTVTVSS
VL: DIQMTQSPSSISTSVGDRVTITCKASQDVDTAVAWYQQKPGKAPKLLIHWASTRHTGVPSRFSGSGSGTDFTLTLSSVQPEDLADYFCQQYSTFPWTFGGGTKLEIK
notes: Crude Fab from E. coli; also called PD1-BM VL-S43A
B7: Fab 8 (Fab, V domains shown)
VH: EVQLVESGGGLVQPGGSLRLSCAASGFVFSRYDMAWVRQTPGKGLEWVAFISGGGSNTYYPDTVKGRFTISRDNSKNTLYLQMNSLRAEDTAVYYCISPYYYAMEYWGQGTTVTVSS
VL: DIQMTQSPSSISTSVGDRVTITCKASQDVDTAVAWYQQKPGKSPKLLIYWASTRHTGVPSRFSGSGSGTDFTLTLSSVQPEDLADYFCQQYSTFPWTFGGGTKLEIK
notes: Crude Fab from E. coli; also called PD1-BM VL-H49Y
B8: Fab 13 (Fab, V domains shown)
VH: EVQLVESGGGLVQPGGSLRLSCAASGFVFSRYDMAWVRQTPGKGLEWVAFISGGGSNTYYPDTVKGRFTISRDNSKNTLYLQMNSLRAEDTAVYYCISPYYYAMEYWGQGTTVTVSS
VL: DIQMTQSPSSISTSVGDRVTITCKASQDVDTAVAWYQQKPGKSPKLLIHWASTRHTGVPSRFSGSGSGTDFTLTLSSVQPEDLADYYCQQYSTFPWTFGGGTKLEIK
notes: Crude Fab from E. coli; also called PD1-BM VL-F87Y
B9: Fab 14 (Fab, V domains shown)
VH: EVQLVESGGGLVQPGGSLRLSCAASGFVFSRYDMAWVRQTPGKGLEWVAFISGGGSNTYYPDTVKGRFTISRDNSKNTLYLQMNSLRAEDTAVYYCISPYYYAMEYWGQGTTVTVSS
VL: DIQMTQSPSSISTSVGDRVTITCKASQDVDTAVAWYQQKPGKSPKLLIHWASTRHTGVPSRFSGSGSGTDFTLTLSSVQPEDLADYFCQQYSTFPWTFGGGTKVEIK
notes: Crude Fab from E. coli; also called PD1-BM VL-L104V
B10: Fab 10 (Fab, V domains shown)
VH: EVQLVESGGGLVQPGGSLRLSCAASGFVFSRYDMAWVRQTPGKGLEWVAFISGGGSNTYYPDTVKGRFTISRDNSKNTLYLQMNSLRAEDTAVYYCISPYYYAMEYWGQGTTVTVSS
VL: DIQMTQSPSSISTSVGDRVTITCKASQDVDTAVAWYQQKPGKSPKLLIHWASTRHTGVPSRFSGSGSGTDFTLTLSSLQPEDLADYFCQQYSTFPWTFGGGTKLEIK
notes: Crude Fab from E. coli; also called PD1-BM VL-V78L
B11: Fab 12 (Fab, V domains shown)
VH: EVQLVESGGGLVQPGGSLRLSCAASGFVFSRYDMAWVRQTPGKGLEWVAFISGGGSNTYYPDTVKGRFTISRDNSKNTLYLQMNSLRAEDTAVYYCISPYYYAMEYWGQGTTVTVSS
VL: DIQMTQSPSSISTSVGDRVTITCKASQDVDTAVAWYQQKPGKSPKLLIHWASTRHTGVPSRFSGSGSGTDFTLTLSSVQPEDLATYFCQQYSTFPWTFGGGTKLEIK
notes: Crude Fab from E. coli; also called PD1-BM VL-D85T
B12: Fab 5 (Fab, V domains shown)
VH: EVQLVESGGGLVQPGGSLRLSCAASGFVFSRYDMAWVRQTPGKGLEWVAFISGGGSNTYYPDTVKGRFTISRDNSKNTLYLQMNSLRAEDTAVYYCISPYYYAMEYWGQGTTVTVSS
VL: DIQMTQSPSSVSTSVGDRVTITCKASQDVDTAVAWYQQKPGKSPKLLIHWASTRHTGVPSRFSGSGSGTDFTLTLSSVQPEDLADYFCQQYSTFPWTFGGGTKLEIK
notes: Crude Fab from E. coli; also called PD1-BM VL-I11V
B13: Fab 1 (Fab, V domains shown)
VH: EVQLVESGGGLVQPGGSLRLSCAASGFVFSRYDMAWVRQAPGKGLEWVAFISGGGSNTYYPDTVKGRFTISRDNSKNTLYLQMNSLRAEDTAVYYCISPYYYAMEYWGQGTTVTVSS
VL: DIQMTQSPSSISTSVGDRVTITCKASQDVDTAVAWYQQKPGKSPKLLIHWASTRHTGVPSRFSGSGSGTDFTLTLSSVQPEDLADYFCQQYSTFPWTFGGGTKLEIK
notes: Crude Fab from E. coli; also called PD1-BM VH-T40A
B14: Fab 9 (Fab, V domains shown)
VH: EVQLVESGGGLVQPGGSLRLSCAASGFVFSRYDMAWVRQTPGKGLEWVAFISGGGSNTYYPDTVKGRFTISRDNSKNTLYLQMNSLRAEDTAVYYCISPYYYAMEYWGQGTTVTVSS
VL: DIQMTQSPSSISTSVGDRVTITCKASQDVDTAVAWYQQKPGKSPKLLIHWASTRHTGVPSRFSGSGSGTDFTLTISSVQPEDLADYFCQQYSTFPWTFGGGTKLEIK
notes: Crude Fab from E. coli; also called PD1-BM VL-L75I
B15: Fab 6 (Fab, V domains shown)
VH: EVQLVESGGGLVQPGGSLRLSCAASGFVFSRYDMAWVRQTPGKGLEWVAFISGGGSNTYYPDTVKGRFTISRDNSKNTLYLQMNSLRAEDTAVYYCISPYYYAMEYWGQGTTVTVSS
VL: DIQMTQSPSSISASVGDRVTITCKASQDVDTAVAWYQQKPGKSPKLLIHWASTRHTGVPSRFSGSGSGTDFTLTLSSVQPEDLADYFCQQYSTFPWTFGGGTKLEIK
notes: Crude Fab from E. coli; also called PD1-BM VL-T13A
B16: Fab 3 (Fab, V domains shown)
VH: EVQLVESGGGLVQPGGSLRLSCAASGFVFSRYDMAWVRQTPGKGLEWVAFISGGGSNTYYPDTVKGRFTISRDNSKNTLYLQMNSLRAEDTAVYYCASPYYYAMEYWGQGTTVTVSS
VL: DIQMTQSPSSISTSVGDRVTITCKASQDVDTAVAWYQQKPGKSPKLLIHWASTRHTGVPSRFSGSGSGTDFTLTLSSVQPEDLADYFCQQYSTFPWTFGGGTKLEIK
notes: Crude Fab from E. coli; also called PD1-BM VH-I97A
B17: chimeric Fab (Fab, V domains shown)
VH: EVQLVESGGDLVKPGGSLKLSCAASGFVFSRYDMAWVRQTPEKRLEWVAFISGGGSNTYYPDTVKGRFTISRDNAKNTLYLQMTSLKSEDTAVYYCISPYYYAMEYWGQGTSVTVSS
VL: DIVMTQSHKFISTSVGDRVSITCKASQDVDTAVAWYQQKPGQSPKLLIHWASTRHTGVPDRFTGGGSGTDFTLTLSNVQSEDLADYFCQQYSTFPWTFGGGTRLEIK
notes: Crude murine-human chimeric Fab from E. coli TG1, made with the HCVR and LCVR of PD1#3; Only the variable domains are tied to it

molecular target: T1, His-tagged human PD-1 protein (human, UniProt Q15116 25-170, limits assumed); test: SPR; Fab-SASA captured on immobilised BSA, his-tagged PD-1 as analyte
T1 construct: SPR analyte; also called his-tagged antigen PD-1; not shown: His tag
Protocol: For affinity ranking, BSA was immobilized onto the sensor chip using amine coupling method. The selected Fab-SASA secreted to the culture medium was injected and captured by BSA through the tight binding between BSA and SASA (capture phase). After equilibration, his-tagged antigen PD-1 was injected for 300 seconds (association phase) followed by the injection of running buffer for 900 seconds (dissociation phase). The surface was regenerated before the injection of another three Fab-SASA clones. The process was repeated until all selected Fab-SASA proteins were analyzed. Responses of reference flow cell were subtracted from those of Fab-SASA flow cells during each cycle. The antibodies were ranked by their dissociation rate constants (off-rates, […]). […]

T1 sequence (Q15116 25-170 limits assumed): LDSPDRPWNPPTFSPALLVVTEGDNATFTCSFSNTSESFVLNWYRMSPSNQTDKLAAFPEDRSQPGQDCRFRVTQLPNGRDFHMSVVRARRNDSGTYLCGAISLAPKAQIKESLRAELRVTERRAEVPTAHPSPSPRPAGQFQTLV

Binder	Kd	koff	kon
B1	0.311 nM	0.000105 s⁻¹	336000 M⁻¹ s⁻¹
B2	0.37 nM	0.000134 s⁻¹	363000 M⁻¹ s⁻¹
B3	0.0854 nM	3e-05 s⁻¹	351000 M⁻¹ s⁻¹
B4	0.41 nM	0.000151 s⁻¹	369000 M⁻¹ s⁻¹

molecular target: T2, human PD-1 (human, UniProt Q15116 25-167); test: SPR, multiple-cycle, crude Fab from E. coli; antigen form not stated
T2 construct: The immunogen was PD1/Fc (Leu25-Gln167 fused to human IgG1 Pro100-Lys330); also called huPD-1; hPD-1
Description: A homology model of mouse anti-PD1 Fv was built wherein putative back mutation sites (i.e., buried residues of the frameworks that are different in the mouse and human acceptor sequences) were identified. There were a total of 14 putative back mutation sites. A variant humanized Fab comprising all 14 of the putative back mutation sites of PD1-grafted Ab mutated back to their mouse counterparts (hereinafter identified as “PD1-BM Ab”) comprising the heavy chain variable region sequence set forth in SEQ ID NO: 38 and the light chain variable region sequence set forth in SEQ ID NO: 39, was synthesized. In addition, 14 variants of PD1-BM Ab (hereinafter identified as Fabs 1-14), each having at least one of the putative 14 back mutation sites in PD1-BM Ab mutated back to the human counterpart, were synthesized. These constructs were used to transform E. coli TG1 strain. Single colonies were pick for each individual construct and grown in E. coli medium. Crude chimeric and humanized Fabs were collected and subjected to multiple-cycle affinity estimation by Surface Plasmon Resonance (SPR).

T2 sequence (Q15116 25-167 limits assumed): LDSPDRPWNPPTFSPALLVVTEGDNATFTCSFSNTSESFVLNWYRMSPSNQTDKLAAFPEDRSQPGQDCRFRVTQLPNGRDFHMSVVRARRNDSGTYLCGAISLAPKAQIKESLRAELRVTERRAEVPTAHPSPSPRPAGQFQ

Binder	Kd	koff	kon
B5	0.72 nM	0.00022 s⁻¹	300000 M⁻¹ s⁻¹
B6	0.59 nM	0.00016 s⁻¹	270000 M⁻¹ s⁻¹
B7	0.57 nM	0.00019 s⁻¹	340000 M⁻¹ s⁻¹
B8	0.29 nM	0.0001 s⁻¹	350000 M⁻¹ s⁻¹
B9	0.68 nM	0.0002 s⁻¹	300000 M⁻¹ s⁻¹
B10	0.29 nM	9.1e-05 s⁻¹	320000 M⁻¹ s⁻¹
B11	0.28 nM	9.4e-05 s⁻¹	330000 M⁻¹ s⁻¹
B12	0.34 nM	0.00013 s⁻¹	370000 M⁻¹ s⁻¹
B13	0.32 nM	9.8e-05 s⁻¹	310000 M⁻¹ s⁻¹
B14	0.24 nM	8e-05 s⁻¹	330000 M⁻¹ s⁻¹
B15	0.25 nM	9.6e-05 s⁻¹	380000 M⁻¹ s⁻¹
B16	1.1 nM	0.00035 s⁻¹	320000 M⁻¹ s⁻¹
B17	0.5 nM	0.00015 s⁻¹	300000 M⁻¹ s⁻¹
